Assay results as given in publication PMC4119023.

Key:
[1] = substrate: Cc1cc(=O)oc2c(F)c(OP(=O)(O)O)c(F)cc12; experiment: steady-state phosphatase assay; type: biochemical, Kluyveromyces lactis; conditions: 50 mM MES pH 5.5, 30 °C, 10 μM enzyme
[2] = substrate: Cc1cc(=O)oc2c(F)c(OP(=O)(O)O)c(F)cc12; experiment: steady-state phosphatase assay; type: biochemical, Homo sapiens; conditions: 50 mM MES pH 5.5, 30 °C, 10 μM enzyme

| Protein | Km ([1]; EDTA-treated enzyme) | kcat ([1]; EDTA-treated enzyme) | further results |
| --- | --- | --- | --- |
| KlRtr1 FL (Kluyveromyces lactis NRRL Y-1140) (protein) MATIEEIKEVVLKPYTNHRQLTIREVETISINLIDLLITKDVKDARTMKYISRFLTKQDYADLVQERNLVKRCGYPLCSKSQARVRDPFADVQMTNFLRQNNPYAYLTEYCTKAHFRCSQFYQFQLSDEALFARVGVHLDDYEPPSEIQLLEEVLARESDVKQMIRGMTDLKLADDDSREEMERDISDMLADIKIVEINEPNIIGDLGRDR | 587 ± 70 µM | 0.001 ± 3e-05 s⁻¹ | – |
| KlRtr1 FL (Kluyveromyces lactis NRRL Y-1140; E197Q) (protein) MATIEEIKEVVLKPYTNHRQLTIREVETISINLIDLLITKDVKDARTMKYISRFLTKQDYADLVQERNLVKRCGYPLCSKSQARVRDPFADVQMTNFLRQNNPYAYLTEYCTKAHFRCSQFYQFQLSDEALFARVGVHLDDYEPPSEIQLLEEVLARESDVKQMIRGMTDLKLADDDSREEMERDISDMLADIKIVQINEPNIIGDLGRDR | 529 ± 45 µM | 0.0016 ± 4e-05 s⁻¹ | – |
| KlRtr1 NTD (Kluyveromyces lactis NRRL Y-1140) (protein) MATIEEIKEVVLKPYTNHRQLTIREVETISINLIDLLITKDVKDARTMKYISRFLTKQDYADLVQERNLVKRCGYPLCSKSQARVRDPFADVQMTNFLRQNNPYAYLTEYCTKAHFRCSQFYQFQLSDEALFARVGVHLDDYEPPSEIQLLEEVLA | – | – | Km [1]: 694 ± 74 µM; kcat [1]: 0.0015 ± 5e-05 s⁻¹ |
| hRPAP2 NTD (Homo sapiens) (protein) MADFAGPSSAGRKAGAPRCSRKAAGTKQTSTLKQEDASKRKAELEAAVRKKIEFERKALHIVEQLLEENITEEFLMECGRFITPAHYSDVVDERSIVKLCGYPLCQKKLGIVPKQKYKISTKTNKVYDITERKSFCSNFCYQASKFFEAQIPKTPVWVREEERHPDFQLLKEEQSGHSGEEVQLCSKAI | – | – | Km [2]: 1668 ± 205 µM; kcat [2]: 0.0005 ± 3e-05 s⁻¹ |
